Results taken from doi:10.1101/2024.07.10.602906.

How the values were obtained:
[1] = biological target: GV CW1 murine norovirus VP1 P-domain (wild type) (murine norovirus (GV, MNV-1 CW1)) (UniProt Q80J95); assay: NMR titration
[2] = biological target: GV CW1 murine norovirus VP1 P-domain (wild type) (murine norovirus (GV, MNV-1 CW1)) (UniProt Q80J95); assay: methyl TROSY NMR

Substance: GV CW1 murine norovirus VP1 P-domain (wild type) (from UniProt Q80J95 228-530) (domain or fragment)
- Kd [1]: 45 µM
- koff [1]: 4.7 s⁻¹
- percent dimers at pH* 5.3 [2]: > 70%
- percent monomers at pH 7.4 [2]: 70%
